assay: label from the status in PepcDB records

| Sequence | protein production |
| --- | --- |
| MLHDWGVIAAALAYIGFLFVVASWGDRLSQGQRERAGGLIYPLSLAIYCTSWTFFGSVGFASRSSFDFLAIYVGPVLVVLVATPLLRRVIRLAKSQNITSIADFIAARYGKSQKVAATVAIIAIIGSVPYIALQLKAVSSSLQTILGDDHNIADIPIVGDIALIVAMAMALFTVLFGTRQASATEHQHGLMLAVATESIVKLVAFLAAGIFVTFWMFSPSALIERAMQMPEAVRALDSTSPANFLTMTALSFCAFMMLPRQFHVSVVENSNEAEVGRARWLFPLYLVAINLFVIPIALAGLVKFPFGKVDSDMYVLALPIDADAPMLSVAVFIGGLSAATAMVIVECVALAVMVSNDLVMPLVLKRHGAPRPDEQRNFGRFLLTVRRVAIFAILILAYLYYRALGNTQLAAIGLLSFAAIAQFAPSFFGGLIWRRATARGAIGGLLVGFAVWAYTLFIPSFMENSTTGLLLLQHGPWGIEALRPQALFGSDLPPLLHGVLWSLSLNLIAYILLSLLRQPSSIERLQAEVFVPDALTPMTPAFRRWRTTVTVQDIVGAVSQYLGPERARDSFRSFAAGRRITLDPAAPADFELLKHAEHLIASSIGAASSRLVLSLLLRKRTVSAEAALKLLDDSHAALHFNREILQTALNHVRQGIAVFNPELQLICSNRQFGEILGLPPHIIQIGIPLIEILEFLASNSIAPIDAEAHTQMRMAAYTTEGEPFIERFPDRHLVVEVRANRMPDGGLVITFSDVTPSFEAAEALERANATLERRVRERTEELTRLNSQLALAKSTAEEANISKTRFLAAASHDILQPLNAARLYATSLVERQNGGEDSRLVENIDESLQAIEEIIGALLDISRLDAGAMTPSLSNFVIGDLMRSLEIEFSPTARAKGLELTFVPCSLPVQSDRLMLRRLMQNLISNAIKYTPQGRVLVGCRRQGQSLRIGIYDTGVGVPILKRGEIFKEFHRLEQGARIARGLGLGLSIVERLARVLNHGIALDSNRGGGSCFSVTVPVAEAVNHTAAVTSATPLSRASMSGILVVCIENDPAILDGMKTLLTTWDAKVIAVADPEAAIRAIESSEQRVTGLLVDYHLDRGNGIAAIREIRARFGQSIPAILITADRSPGVRASARQEEIAVLNKPVKAASLRALLSQWHAQQSVVAAE | failed |
| MLHIDDAMIEDAVTPQAAQEVLHAAFLDFGRGSAAMQRRVRTEAGGVKLSTLGAVIPGQGVAGAKVYTTIKGQFQFVILLFSAADGRPLATCDAGTLTRKRTAACTVLAAGALARPRSSVLGLFGAGTQGVEHAAQLSARFALEAILVHDPHASPEVVERIGRRCGVPARMAAPADIAAQADIVVTATRSATPLFAGQALRAGAFVGAIGSSLPHTRELDDEALRRARAVVVEWREQTLSEAGDLVLAAPDTGLDAKVVELADVLAGRATARQADEDIVIYKSVGVGLEDVALAGYAYRRLAAQRGWPAP | failed |
| MLHKRASEANDKNDNTIIGSDLASSKKRRIDFTESSSDKSSSILASGSSRGFHGDSVVQQIDMAFGNSNRQEIDEDLHSRQLAVYGRETMRRLFASNVLISGMHGLGAEIAKNLILAGVKSVTLHDERVVELWDLSSNFVFSEDDVGKNRADASVQKLQDLNNAVVVSSLTKSLNKEDLSGFQVVVFSDISMERAIEFDDYCHSHQPPIAFVKADVRGLFGSVFCDFGPEFAVLDVDGEEPHTGIIASISNENQAFISCVDDERLEFEDGDLVVFSEVEGMTELNDGKPRKIKSTRPYSFTLDEDTTNYGTYVKGGIVTQVKQPKLLNFKPLREALKDPGDFLFSDFSKFDRPPLLHLAFQALDHFKAEAGRFPVAGSEEDAQKLISIATAINTGQGDLKVENVDQKLLRHFSFGAKAVLNPMAAMFGGIVGQEVVKACSGKFHPLFQFFYFDSVESLPSEPVDSSDFAPRNSRYDAQISVFGAKFQKKLEDAKVFTVGSGALGCEFLKNLALMGVSCGSQGKLTVTDDDIIEKSNLSRQFLFRDWNIGQAKSTVAASAAAVINPRFNIEALQNRVGAETENVFDDAFWENLTVVVNALDNVNARLYVDSRCLYFQKPLLESGTLGTKCNTQSVIPHLTENYGASRDPPEKQAPMCTVHSFPHNIDHCLTWARSEFEGLLEKTPAEVNAYLSSPVEYTNSMMSAGDAQARDTLERIVECLEKEKCETFQDCLTWARLRFEDYFVNRVKQLIYTFPEDAATSTGAPFWSAPKRFPRPLQYSSSDPSLLNFITATAILRAETFGIPIPEWTKNPKEAAEAVDRVIVPDFEPRQDAKIVTDEKATTLTTASVDDAAVIDDLIAKIDQCRHNLSPDFRMKPIQFEKDDDTNYHMDVIAGLANMRARNYSIPEVDKLKAKFIAGRIIPAIATSTAMATGLVCLELYKVLDGGHKVEAYRNTFANLALPLFSMAEPLPPKVVKHRDMAWTVWDRWVLKGNPTLREVLQWLEDKGLSAYSISCGSCLLFNSMFTRHKERMDKKVVDLARDVAKVELPPYRNHLDVVVACEDEDDNDVDIPLVSIYFR | failed |
| MLHLKVQFLDDSQKIFVVDQKSSGKALFNLSCSHLNLAEKEYFGLEFCSHSGNNVWLELLKPITKQVKNPKEIVFKFMVK | failed |
| MLHWISLLCAGCLEMAGVALMNQYAKEKSVKWVLLIIVGFAASFSLLSYAMETTPMGTAYAVWTGIGTAGGALIGILFYKEQKDAKRIFFIALILCSAVGLKILS | failed |
| MLIFLISSAIVLLADLLITYQIYREIKVRREVSGNQGGFASVIIPVRGLDVNAEENLKSLLSQDYSAYEVIYVVDDENDPIVPILRKYNVKVVVSNKNCDICSGKINAQLEGLKHARGDIIVFADSDTWFPKYWLKELVSPLSNYVATTVFSWAKPVRLTIGNIIRAGFWTLGFESQAVGGTFLWGGSMAFKREFFDERVIQELKTQWCDDCTLTRIAKERGKLGFVFNAMPLNFYDETQLITWSKRQLITVWRYSRRGVNGFIIVAIFMLAFLFLIPFNVFAITPFIFWVFKNILRSYKIGLSNSIIPSLASILAIFYSLFLIALTLREKNIIWRGKIYKV | failed |
| MLIKLTGGTVYDPANGIDGQVRNLFIRDGRIVHSLNGATPDQEYDLRGKVVMAGAIDMHTHIGGGKVT | failed |
| MLIKQTDYFRIYRVINSLLISQNADPASASMYFSTFGAFILQQHYKVKAVPKGGLAAYNLGGTVLLFADHREDGYVTGAGENFHCWVEADGWAIDFMAPAFSEGTDALAVPAKMFQRPLSAMAASINDLGQSGDFFYRSEPEATARRFADWHKQAMIGDMASVAANWFRKSPKQMAASLSVTDRDGKARTVPLTGEMLTGAW | not failed |
| MLINLGQRLENLRTLVGFLKAARAESLDRVIAIADSLNKTEIAAQSRRWMLSHPAVAQLAAENYAPARPALEALNQLPTGTLGQAYASLLLGQNLSPDDLQPAKPATNADEYIVERLRVTHDIAHVITGFGTDPASELGLQAFNLRQNRTPLAVLLIAGGLLKTIKEGRDPAPILRQVARGIELADKAELLVAQRWEDHWDWPLEQWRQVLNLPV | failed |
| MLITISDIAWGIALSIWVAIVVLYISKLISKKFGAYVTRKAIHMLGGGIVAVLSPFVFNSPLVPIITSYLIMAYLITIRVLRKEMSWFMDKENLGEVFFAFSFGTVLLVMFILDPNYWTSTDLIYVAVLPLIFMSFGDGITGIIRNFVYKRRVKGLWGSMGMLIFCATVGYFVLNIPGLIAGILATVAELLPYIDDNISVPFLSFLFLYLFVRVL | failed |
| MLITVYCVRRDLSEVTFSLQVSPDFELRNFKVLCEAESRVPVEEIQIIHMERLLIEDHCSLGSYGLKDGDIVVLLQKDNVGPRAPGRAPNQPRVD | failed |
| MLKAFRKNQHPVAIPSTLPDGSAWPRISIVTPSYNNAKYIEETIISVLEQGYPDVEHIIVDGASKDGTAAILDRYRGHVARIIQEPDTGQSNAINKGMRLATGEIVTWLNSDDLLAPGALAAVAMAFHMSGADMVAGGCQLYRNGGYLGTHLTSCADGTLPAEEISDLYGGWQTGKFFYQPEVMFTRDLWQRAGGQVREDLHYCMDVEMWLRFASCGARLHVIGAPVAMFRLHEEQKTNNPDASPDEYIPVANAWRTTHGLPPITRTTLPPPPPPLKVAFVNDIGFQYGAGIAHQRLFTAVSSAGHTVRGWATGFQSPRDVFEATAARIISEIEAFEPDVVVCGNLHCTIADSDMLVRLTDRWPTCFCLHDLWLLTGHCPHPGFLDCVRHLAGCDHTCPSPDTYPTIAAGDIRKAWDAKREVMARDTFLALANSNWTRAQHDGCTTPGHEARLLRLGCDESIFHPGDRLEARRQLGLDMDAFVVLMPMVDFSSPFKGSVEGLEALSGAGLENLQVICFGVVEQEMIARFPILTALGYLHDPEAVATAYRAADVVVSFSHAETFGQTLMEAACCGIPSLAYRCTGLPDAVVDGVSGFLVDETPDALITRLHQLHADANLRASLGTWAALYARNSRCLQAEYHSFHTNLEEAGLLAPGRLGKNIFFAHTEAHEAEPSIPVSDPRPGSAFKNWLRRELPTPVWMALRRVYRGTKSRLGMHP | failed |
| MLKAYRYRIYPTKAQEEFFEKAFGCCRFVWNKMLEEKLEALKQGKKVPRITPARYKKEYPFLREVDSLALANVQMKQEKAFKDFFKNPKHFGIPKFKRKKDKQSYTTNNQQTKSGNETIRVDFEKGLLYLPKVKSGIKAVFHREFEGKIKSATVVKTKAGRYYVSILVDVQDPRNKEVNRIFENEITKRENFICGIDTGLISFVTIANDTGISKIEYPKYLIKAEKRLKRLQRQLSRKKEGSKNWEKARERLAKEYEYVKNSREDFLHKISKTIIDENQVVVVESLNVKGLSRTRLSKHILDSSWSKFLRYLKYKADWYGRKVIEADRSFPSSKMCSRCGYINKELKLKDRVWKCPKCKAVHDRDENAAKNLKNYGIAYIRNQ | failed |
| MLKDNLKEWFGFDEFKEGQEEIIDSVLHGRHTLGILPTGSGKSLCYQLPTYILEKPTLIISPLISLMDDQVMQMKLKGETHVACVHSGMDEVEKRDNIKRLSKSRFIYLSPEYILQPHNFKYIAHINFGLIVLDEAHCLSEWGYDFRPHYALVGKIIHHFNSATVLALTATAPPQLETDLSHILSLKLNVVQKSMNRENISLQHYNFNDDEGKIEWLLPFLSNSGPTIIYVSSKKRCLELAQMIYDSGYLTGIYHGDLSYQERQTVQQQFFNNDIPVIVATSAFGMGINKKDIRTVIHFHLSSSPSNYLQEIGRAGRDGKQSQAISLFQPDDSFILETLLFTDIITDDDITMFETGNHLPDEKEKILSTLNIQFTFSQLKDIFHQSYQRKRLGYMRMMGYTNLDQCRRKYLLEFFGEHPQSPKQCCDQDSRLEPIQILNRKKVKRKLSFNEKLYNLFET | failed |
| MLKEIKRRNRMKNKRLIGIIAALAVLVAGSLIYSSMNKSEAQNNKDEKKITKIGVLQFVSHPSLDLIYKGIQDGLAEEGYKDDQVKIDFMNSEGDQSKVATMSKQLVANGNDLVVGIATPAAQGLASATKDLPVIMAAITDPIGANLVKDLKKPGGNVTGVSDHNPAQQQVELIKALTPNVKTIGALYSSSEDNSKTQVEEFKAYAEKAGLTVETFAVPSTNEIASTVTVMTSKVDAIWVPIDNTIASGFPTVVSSNQSSKKPIYPSATAMVEVGGLASVVIDQHDLGVATGKMIVQVLKGAKPADTPVNVFSTGKSVINKKIAQELGITIPESVLKEAGQVIE | not failed |
| MLKERAGAVSAGLRALDLALVAAAFGLALALRAAVDVPAVPPLLPAGRHLAWLAVALALWPAAAGAAGVYGQYRTRSRREEILRLARAVGLLALGVAAASFLGRDRDLSRLLLLGWNGIALVLLAGSRVAVRTLAHEARRRGHNTRAFAVVGSGPMARAMRQRLLARPEWGFTFAGFVLEEGAPRRGIPGPVLGRVDELAAVLERYVVDLVVFAVPRDRLPGMEAAVAACQEQGVVAKIGLEPFPPRHGRLTVEDLDGIPVLSYASAPQDALPLLAKRAIDVVASALALVVLSPLLAAVALAVRLDSPGPVLFRQRRVGLSGRTFTLYKFRSMRAGAEAEQARLADRNEMDGPVFKLRDDPRVTRVGKVLRRTSLDELPQLWNVLRGEMSLVGPRPPLPDEVRRYERWQRRRLSVKPGLTCTWQVSGRSEVGFGRWMQLDLDYIDRWSLWQDVRIVLRTIPAVLLGRGAR | failed |
